In patent publication US20240240209A1, “SYNTHESIS OF ENANTIOPURE CIS-A-IRONE FROM A RENEWABLE CARBON SOURCE” (Agency for Science, Technology and Research, priority 2021, published 2024):
Positions count from the first letter of the chain named. Names may count otherwise. “Also recorded” adds a separate entry of the source.

B1: pMT7: pMT1 with Y200F S182E L273V L180A A202L Y65F (protein)
chain: MPQEARTPQQQVTADEVGDWYDKFGEVYHLTLGESVHCGLWFPPDAPVPQDMELVTMSSQAQDRFTDYLIETLDPKAGQHLLDIGCGTGRTALKAARQRGIAVTGVAVSKEQIAAANRLAAGHGLTERLTFEVADAMRLPYEDESFDCAWAIESLCHMDRAKALGEAWRVLKPGGDLLVAEEVVTEELTEPETALFETLFALNVPPRLGEFFDIVSGAGFHTLSLKDLSANLAMTMNVFALGVYSRRAEFTERFGAEFVDGLLAGLGSAQETVIRKTRFFMATLRKPAV
modifications: Modified from pMT1
notes: pMT1 with Y200F S182E L273V L180A A202L Y65F
B2: pMT10: pMT1 with Y200F S182E L273V L180A A202L Y65F C156A T91P (protein)
chain: B1 chain with T91P, C156A
modifications: Modified from pMT1
notes: pMT1 with Y200F S182E L273V L180A A202L Y65F C156A T91P

Tests used:
[1] = Cell lysate reaction of pMT enzymes with psi-ionone, irones quantified by HS-SPME-GCMS; format: biochemical; details: for fold change in cis-α-irone produced: AUC vs non-mutated (=1)
Procedure, shortened: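 pMT1 site-saturation mutants were expressed in E. coli BL21(DE3) and lysed, and lysates were incubated 2 days at 28 °C with 0.2 mM SAM and 10 mg/L psi-ionone (plus caryophyllene) in 50 mM Tris pH 7, 10 mM MgCl2. Cis-α-irone was measured by HS-SPME-GCMS peak area and given as fold change over non-mutated enzyme.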

[2] = Stability of pMT7 (native PAGE, pre-incubation at 28° C.); details: incubating or reacting at 28° C. overnight
Experimental: (28 C) or 4° C. (4 C). […] All the data shown is an average of replicate reaction.
(§1) The steady-state kinetic parameters of pMT7 were determined (Table 3). […] While determining the steady-state kinetics of pMT7, it was noticed that the reaction with purified pMT7 stopped at 6 h before significant conversion had taken place (FIG. 15a). Moreover, while using cell extracts containing pMT7, the reaction reached a plateau after 1-day incubation (FIG. 15b). […] Since pMT7 is an hexamer in solution^10, its oligomeric state before and after the reaction was examined. […] (28 C) overnight as compared to 4° C. […] It was further tested if the enzyme was subject to feedback inhibition, as the cofactor product SAH is a potent inhibitor of methyltransferases^12.

[3] = Steady-state kinetics of purified pMT enzyme, substrate psi-ionone; format: biochemical; details: pMT10 vs pMT7 (Table 3)
Experimental: as §1
To determine the purified enzyme kinetics and in vivo production, the reaction mixture was extracted with 0.5× or 1× volume of ethyl acetate and the organic phase was diluted appropriately before subjected to GCMS analysis. The samples were analyzed on an Agilent Intuvo 9000 GC system equipped with Agilent DB-WAX Ultra Inert Intuvo GC column (30 m×250 μm×0.25 μm) and Agilent 5977B mass spectrometry with high efficiency source. 1 μl organic phase was injected at the split ratio 10:1 at 250° C. […] The concentration of psi-ionone and irone were calculated by interpolating with a standard curve prepared by synthetic standards.

[4] = Purified pMT7/pMT10 reaction with auxiliary enzymes mtn and mtaD; format: biochemical; details: for cis-α-irone amount relative to pMT7 reaction alone: purified enzyme
Text: All the purified enzyme reactions were done in triplicates.
An alternative strategy to reduce SAH inhibition is to introduce auxiliary enzymes that degrade SAH12 (FIG. 18a). […] Noteworthy, with mtaD enzyme, cis-α-irone production by pMT10 was improved by ˜2.5 fold as compared to pMT10 reaction alone (FIG. 3c). […] This somewhat agrees with the effect of mutating D135, which abolishes the hydrogen bond interaction between pMT7 and the amine group of the adenine moiety.

Molecule | cis-α-irone production ([1]; higher as compared to pMT1) | fold change in cis-α-irone produced ([1]; pMT6_Y65 mutants) | fold change in cis-α-irone produced ([1]; pMT7_T91 mutants) | improvement of total turnover number (TTN) ([1]; vs pMT1, TTN = cis-α-irone produced / soluble pMT enzyme) | stability of enzyme [2] | improvement of catalytic efficiency [3] [fold] | cis-α-irone production improvement with mtaD enzyme ([4]; as compared to pMT10 reaction alone) [fold] | cis-α-irone amount relative to pMT7 reaction alone ([4]; with mtaD) [fold] | cis-α-irone amount relative to pMT7 reaction alone ([4]; without mtaD) [fold]
B1 | 2,450 fold | 1.4 | 1.0 | 2,000 fold | remained intact as hexamer; also recorded: stable under the reaction temperature | – | – | – | –
B2 | – | – | – | – | – | 10 | ~2.5 | ~6.5 | ~4.5
